According to publication PMC4773448, “Isolation and Characterization of a Novel Cold-Adapted Esterase, MtEst45, from Microbulbifer thermotolerans DAU221” (Frontiers in Microbiology, 2016):

Substrate: CCCC(=O)Oc1ccc([N+](=O)[O-])cc1
Experiment: purified protein
Type: biochemical, Microbulbifer thermotolerans
Conditions: 20 mM Tris-HCl pH 8.17, 46.27 °C, 0.1-1 mM substrate

B1: MtEst45 (Microbulbifer thermotolerans) (protein)
chain: APRFISNLDIISFDGTELDANLFVPDTPPPDGGYPTVLFTNSWALDKHQYLLQAKALAEKGYLVMSYSTRGFGKSGGLVDVAGDNTLADTRVLIDWLEANYPVGKLGMAGISYGAGISLLTAAADSRVDAVAALSGWSDVVEGLYPNNTVNLVWGTLLVNTAFKREPIVDQIWSNLRNGHNLSDVFTFSASRSALSYVDALNANGTAVLLSNNFADYLFKPNSTIDLYTLLEGPKKLLLNPGTHAVTETLGGNGGHIWTTSFRWFDRYLKGENNGIDREPKVDMTVRISNRLEQFDDFPVTGKQSHWYLHPRLTYFGNGQLKSNPYSGWRWSNQFHSGADTAAGTGIPLVSDALEGLGIPVYTFMPAINGYYAIEYQSPLLWNGMKIRGTPTLEMWITPSKPEVQLHLHLYDTGPLGMGRLITHAPITLRNAQVGREQKIDVEFFTTSYDVPAGHRVTLAIDTEGLIYQKPADTDYEITVPYRSDRVSKLAIPQL
notes: mature form without 21-residue signal peptide (495 aa of 516); N-terminal His6 (pCold I), E. coli BL21(DE3), tag not reported cut; about 45 kDa on SDS-PAGE
For B1, which Km is on record?
Its Km is 99.8 µM.
